Where “and” joins values, the source holds several entries; their conditions need not be identical. Equal values may be shown once.
Columns and labels:
[1] = target: human PD-1 and human TIGIT both stably expressed on Jurkat cells (Jurkat/PD-1/TIGIT cells); assay: flow cytometry, Jurkat/PD-1/TIGIT cells, 20 nM
[2] = target: PD-1-Fc (recombinant PD-1-Fc fusion protein) (human) (UniProt Q15116); assay: ForteBio Octet, PD-1-Fc on sensor
[3] = target: CD112R endogenously expressed on Jurkat/IL-2 reporter cells (Jurkat parental) (UniProt Q6DKI7); assay: flow cytometry, Jurkat parental
Sequence of CD112R endogenously expressed on Jurkat/IL-2 reporter cells (Jurkat parental) (Q6DKI7 whole entry): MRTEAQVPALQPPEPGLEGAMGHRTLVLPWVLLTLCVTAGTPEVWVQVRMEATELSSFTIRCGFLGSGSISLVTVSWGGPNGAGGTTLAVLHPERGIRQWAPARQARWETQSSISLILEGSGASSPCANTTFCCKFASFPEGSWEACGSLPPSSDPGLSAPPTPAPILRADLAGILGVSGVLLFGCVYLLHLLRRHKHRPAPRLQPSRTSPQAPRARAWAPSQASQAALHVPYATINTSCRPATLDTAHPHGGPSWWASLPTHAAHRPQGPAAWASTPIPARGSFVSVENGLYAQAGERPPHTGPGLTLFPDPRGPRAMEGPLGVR

[4] = target: T1, rB7H6.Fc (human) (UniProt Q68D85); assay: flow cytometry of yeast display strain stained with 16.6 nM rB7H6.Fc
T1 sequence (looked up): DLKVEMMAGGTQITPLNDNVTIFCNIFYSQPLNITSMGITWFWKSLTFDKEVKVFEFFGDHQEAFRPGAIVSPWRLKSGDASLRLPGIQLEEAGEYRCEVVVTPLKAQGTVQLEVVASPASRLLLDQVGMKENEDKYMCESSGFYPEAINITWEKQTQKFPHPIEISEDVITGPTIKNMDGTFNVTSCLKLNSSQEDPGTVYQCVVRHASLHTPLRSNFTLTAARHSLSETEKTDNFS

[5] = target: T2, CD226 (UniProt Q15762); assay: flow cytometry, cells expressing CD226
T2 sequence (looked up): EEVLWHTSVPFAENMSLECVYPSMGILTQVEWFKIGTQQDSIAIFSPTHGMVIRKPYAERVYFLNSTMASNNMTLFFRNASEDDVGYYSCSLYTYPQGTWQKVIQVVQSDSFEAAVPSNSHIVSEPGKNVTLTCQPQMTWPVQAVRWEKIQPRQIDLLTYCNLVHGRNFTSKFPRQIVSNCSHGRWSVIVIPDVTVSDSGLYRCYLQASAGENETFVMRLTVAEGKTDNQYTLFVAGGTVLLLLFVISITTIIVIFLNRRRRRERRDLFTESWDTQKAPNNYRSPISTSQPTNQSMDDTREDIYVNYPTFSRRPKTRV

[6] = target: PD-1 (human) (UniProt Q15116); assay: cell-based or functional assay
Sequence of PD-1 (human) (Q15116 25-288): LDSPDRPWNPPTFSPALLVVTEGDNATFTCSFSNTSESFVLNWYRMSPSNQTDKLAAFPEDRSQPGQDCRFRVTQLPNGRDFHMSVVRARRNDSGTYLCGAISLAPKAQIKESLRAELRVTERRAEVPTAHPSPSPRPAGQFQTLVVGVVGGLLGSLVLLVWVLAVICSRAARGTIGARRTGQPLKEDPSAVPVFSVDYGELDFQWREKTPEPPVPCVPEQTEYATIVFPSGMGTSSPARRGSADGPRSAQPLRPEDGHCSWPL

Sequence of PD-1-Fc (recombinant PD-1-Fc fusion protein) (human) (Q15116 25-167 limits assumed): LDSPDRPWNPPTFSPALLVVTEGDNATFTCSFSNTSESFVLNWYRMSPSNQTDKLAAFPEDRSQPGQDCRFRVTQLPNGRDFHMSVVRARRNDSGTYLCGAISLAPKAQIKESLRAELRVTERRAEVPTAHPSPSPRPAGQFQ

Average Relative Luminescence Units [6]	Fold increase in IL2 reporter signal [6]	Substance	other results
		Fc Control (homodimer) (from UniProt P0DOX5 218-449)	MFI at 20 nM [1]: 478 MFI
		Full length ECD of PD-L1 (R&D Systems) (from UniProt Q9NZQ7 19-238) (Fc fusion)	MFI at 20 nM [1]: 10400 MFI
		PD-L2 IgV-Fc variant H15Q (Fc fusion)	Fortebio binding to PD-1-Fc Response Units (Response Units) [2]: 0.007
		PD-L2 IgV-Fc variant H15Q, S67L, R76G, I85F (Fc fusion)	Fortebio binding to PD-1-Fc Response Units (Response Units) [2]: 0.025
		Wild-type CD155-ECD-Fc (from UniProt P15151 21-343) (Fc fusion)	MFI at 20 nM [1]: 1200 MFI
		non-stack variant PD-L1 IgV-Fc control (D43G/N45D/L56Q/V58A/G101G-ins (G101GG)) (Fc fusion)	MFI at 20 nM [1]: 41400 MFI; MFI at 33.3nM [3]: 100 MFI
		parental NKp30 strain (yeast-displayed wild-type NKp30 IgC-like domain) (from UniProt O14931 19-134) (receptor)	MFI [4]: 90 MFI
		variant CD155 IgV-Fc V9L, V11M, P18S, N35S, S54G, Q62K, L79P, L104M, T107M, V115M (Fc fusion)	MFI at 25 nM [5]: 2320 MFI
2310 RLU	1.04 fold	variant PD-L1 IgV-Fc A33D, D43G, N45D, V58A, S75P (Fc fusion)	
2140 RLU	0.96 fold	variant PD-L1 IgV-Fc A33D, E53V (Fc fusion)	
2000 RLU	0.9 fold	variant PD-L1 IgV-Fc A33D, N45T (Fc fusion)	
2060 RLU	0.92 fold	variant PD-L1 IgV-Fc A33D, N78I (Fc fusion)	
2060 RLU	0.92 fold	variant PD-L1 IgV-Fc A33D, N78S (Fc fusion)	
2040 RLU	0.92 fold	variant PD-L1 IgV-Fc A33D, S75P (SEQ ID NO 287) (Fc fusion)	
2220 RLU	0.99 fold	variant PD-L1 IgV-Fc A33D, S75P, D85E (Fc fusion)	
3930 RLU	1.76 fold	variant PD-L1 IgV-Fc D43G, N45D, L56Q, V58A, G101G-ins (G101GG) (Fc fusion)	
2460 RLU	1.11 fold	variant PD-L1 IgV-Fc D43G, N45D, V58A (Fc fusion)	
2030 RLU	0.91 fold	variant PD-L1 IgV-Fc E27G, N45T, K57R (Fc fusion)	
1970 RLU	0.88 fold	variant PD-L1 IgV-Fc E27G, N45T, M97I (Fc fusion)	
2000 RLU	0.9 fold	variant PD-L1 IgV-Fc E27G, N45T, V50A (Fc fusion)	
1960 RLU	0.88 fold	variant PD-L1 IgV-Fc E27G, N45T, V50A, N78I (Fc fusion)	
2220 RLU	0.99 fold	variant PD-L1 IgV-Fc E40G, D43V, N45T, V50A (Fc fusion)	
4380 RLU	1.97 fold	variant PD-L1 IgV-Fc I20L, A33D, D43G, N45D, V58A, N78I (Fc fusion)	
3470 RLU	1.56 fold	variant PD-L1 IgV-Fc I20L, D43G, N45D, N78I (Fc fusion)	
4190 RLU	1.88 fold	variant PD-L1 IgV-Fc I20L, D43G, N45D, V58A, N78I (Fc fusion)	
2000 RLU	0.9 fold	variant PD-L1 IgV-Fc I20L, D43G, N45D, V58A, N78I, D90G, G101D (Fc fusion)	
4590 RLU	2.06 fold	variant PD-L1 IgV-Fc I20L, E27G, D43G, N45D, V58A, N78I (Fc fusion)	
2010 RLU	0.9 fold	variant PD-L1 IgV-Fc I20L, E27G, D43G, N45T, V50A (Fc fusion)	

Average Relative Luminescence Units [6]	Fold increase in IL2 reporter signal [6]	Substance	other results
1800 RLU	0.81 fold	variant PD-L1 IgV-Fc I20L, E27G, N45T, V50A (Fc fusion)	
2110 RLU	0.95 fold	variant PD-L1 IgV-Fc I20L, I36T, N45D (SEQ ID NO 254) (Fc fusion)	
2210 RLU	0.99 fold	variant PD-L1 IgV-Fc I20L, I36T, N45D (SEQ ID NO 298) (Fc fusion)	
2250 RLU	1.01 fold	variant PD-L1 IgV-Fc I20L, I36T, N45D, I47T (Fc fusion)	
2160 RLU	0.97 fold	variant PD-L1 IgV-Fc I20L, I36T, N45T, V50A (Fc fusion)	
3590 RLU	1.61 fold	variant PD-L1 IgV-Fc I20L, K23E, D43G, N45D, V50A, N78I (Fc fusion)	
3510 RLU	1.57 fold	variant PD-L1 IgV-Fc I20L, K23E, D43G, N45D, V58A, N78I (Fc fusion)	
4290 RLU	1.93 fold	variant PD-L1 IgV-Fc I20L, K28E, D43G, N45D, V58A, Q89R, G101G-ins (G101GG) (Fc fusion)	
2110 RLU	0.95 fold	variant PD-L1 IgV-Fc I20L, M41K, D43G, N45D (Fc fusion)	
2180 RLU	0.98 fold	variant PD-L1 IgV-Fc I20L, N45T (Fc fusion)	
2070 RLU	0.93 fold	variant PD-L1 IgV-Fc I20L, N45T, N78I (Fc fusion)	
2360 RLU	1.06 fold	variant PD-L1 IgV-Fc K23R, D43G, N45D (Fc fusion)	
2690 RLU	1.21 fold	variant PD-L1 IgV-Fc K23R, N45T, N78I (Fc fusion)	
2350 RLU	1.05 fold	variant PD-L1 IgV-Fc K28N, M41V, N45T, H51N, K57E (Fc fusion)	
2120 RLU	0.95 fold	variant PD-L1 IgV-Fc M18I, M41K, D43G, H51R, N78I (Fc fusion)	
2150 RLU	0.97 fold	variant PD-L1 IgV-Fc M41K (Fc fusion)	
2190 RLU	0.98 fold	variant PD-L1 IgV-Fc N45T (Fc fusion)	
2030 RLU	0.91 fold	variant PD-L1 IgV-Fc N45T, L74P, S75P (Fc fusion)	
2180 RLU	0.98 fold	variant PD-L1 IgV-Fc N45T, N78I (Fc fusion)	
1960 RLU	0.88 fold	variant PD-L1 IgV-Fc N45T, S75P (Fc fusion)	
2080 RLU and 2200 RLU	0.93 fold and 0.99 fold	variant PD-L1 IgV-Fc N45T, V50A (Fc fusion)	
1900 RLU	0.85 fold	variant PD-L1 IgV-Fc N45T, V50A, N78I (Fc fusion)	
2240 RLU	1.01 fold	variant PD-L1 IgV-Fc N78L (Fc fusion)	
2050 RLU	0.92 fold	variant PD-L1 IgV-Fc T19I, E27G, N45I, V50A, N78I, M97K (Fc fusion)	
3380 RLU	1.52 fold	variant PD-L1 IgV-Fc V11A, I20L, E27G, D43G, N45D, H51Y, S99G (Fc fusion)	
2280 RLU	1.02 fold	variant PD-L1 IgV-Fc V11E, I20L, I36T, N45D, H60R, S75P (Fc fusion)	
2150 RLU	0.97 fold	variant PD-L1 IgV-Fc Y14S, K28E, N45T (Fc fusion)	
